The target in this experiment is T1, human sclerostin (human, UniProt Q9BQB4 24-213, biotin-labeled (site not stated)).
T1 construct: also called biotin-labeled human sclerostin; SOST
T1 sequence: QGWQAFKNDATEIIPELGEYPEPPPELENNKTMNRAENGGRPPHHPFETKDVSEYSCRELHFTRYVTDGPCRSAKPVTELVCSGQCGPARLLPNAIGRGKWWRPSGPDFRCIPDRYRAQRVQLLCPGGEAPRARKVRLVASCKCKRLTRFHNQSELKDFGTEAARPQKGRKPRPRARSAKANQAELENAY
The experiment in a line: competition alpha screen, increasing antibody against his-tagged LRP6 / biotin-labeled human sclerostin.

B1: 20C3 (antibody, V domains shown)
VH: QVQLQESGPGLVKPSETLSLTCTVSGGSISSYYWSWIRQPPGKGLEWIGYISDSGSTNYNPSLKSRIPISVDTSKNQFSLKLSSVTAADTAVYYCARWQLAHDAFDIWGQGTMVTVSS
VL: QSALTQPASVSGSPGQSITISCTGTSSDVGGYNYVSWYQQHPGKAPKLMIYEVSYRPSGVSNRFSGSKSGSTASLTISGLQPEDEADYYCSSYAISSTLVFGGGTKMTVL
notes: Parental anti-sclerostin antibody, described as directed against the loop 2 region of sclerostin
Turning to B1, the binding result is “binds”.

B2: 27H6 (antibody, V domains shown)
VH: EVQLVESGGGLVQPGGSLRLSCAASGFTFSSYSMNWVRQAPGKGLEWVSYISSSGSSIYYADSVKGRFTISRDNAKNSLYLQMNSLRDEDTAVYYCARERYYGDTPFDYWGQGTLVTVSS
VL: DIVMTQTPLSLPVTPGEPASISCRSSQSLLNSVDGSTNLDWYLQKPGQSPQLLIYTLSYRASGVPDRFSGSGSGTDFTLKISRVEAEDVGVYYCMQRIEFPLTFGGGTKVEIK
notes: also called sclerostin antibody 27H6
As to B2, the binding result is recorded as “binds”.

(Values after patent US20160046705A1 (Amgen, published 2016).)
